Data reported in US20100311648A1 (AstraZeneca / MedImmune, published 2010).
Each block holds one binder with its values, some of them ahead of it. Positions of bridges follow the written chain, without caps; N, C: chain ends. Non-standard residues stand in square brackets, D forms with d. dPhe(2-CF3) = N[C@H](Cc1ccccc1C(F)(F)F)C(=O)O; dPhe(4-CN) = N#Cc1ccc(C[C@@H](N)C(=O)O)cc1; dPhe(2-Cl) = N[C@H](Cc1ccccc1Cl)C(=O)O; dPhe(4-F) = N[C@H](Cc1ccc(F)cc1)C(=O)O; dPhe(2-F) = N[C@H](Cc1ccccc1F)C(=O)O; Orn = NCCC[C@H](N)C(=O)O

Columns and labels:
[1] = biological target: T1, human melanocortin-4 receptor (human, UniProt P32245 1-332); assay: cell-based or functional assay
[2] = biological target: T2, melanocortin-1 receptor (mouse (B-16 melanoma cells); in some …, UniProt Q01727 1-315); assay: [I125]-NDP-α-MSH competition, MC1-R membranes
T2 construct: whole, on cells; membrane homogenates; also called MC1-R; mouse B16 MC1-R
Experimental: (§1) A competitive inhibition binding assay was performed for exemplified peptides according to the invention using membrane homogenates prepared from HEK-293 cells that express recombinant hMC4-R, hMC3-R, or hMC5-R, and from B-16 mouse melanoma cells (containing endogenous MC1-R). In some instances, HEK-293 cells that express recombinant hMC1-R were employed. Assays were performed in 96 well GF/B Millipore multiscreen filtration plates (MAFB NOB10) pre-coated with 0.5% bovine serum albumin (Fraction V). […] After incubation for 60 minutes at 37° C., the assay mixture was filtered and the membranes washed three times with ice-cold buffer. Filters were dried and counted in a gamma counter for bound radioactivity. […] Each assay was conducted in triplicate and the actual mean values are described, with results less than 0% reported as 0%. Ki values for test peptides of the present invention were determined using Graph-Pad Prism® curve-fitting software.

[3] = biological target: T1, human melanocortin-4 receptor; assay: [I125]-NDP-α-MSH competition, hMC4-R HEK-293 membranes
Experimental: as §1

T1 sequence (P32245 whole entry): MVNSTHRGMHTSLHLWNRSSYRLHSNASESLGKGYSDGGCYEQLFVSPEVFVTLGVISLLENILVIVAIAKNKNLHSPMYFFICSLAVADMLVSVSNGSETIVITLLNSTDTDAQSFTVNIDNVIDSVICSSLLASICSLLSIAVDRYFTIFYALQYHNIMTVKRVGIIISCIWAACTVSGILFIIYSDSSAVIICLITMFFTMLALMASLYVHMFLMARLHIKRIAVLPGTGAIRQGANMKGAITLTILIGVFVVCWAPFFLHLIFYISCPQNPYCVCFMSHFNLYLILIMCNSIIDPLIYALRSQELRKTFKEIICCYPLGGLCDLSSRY
T2 sequence (Q01727 whole entry): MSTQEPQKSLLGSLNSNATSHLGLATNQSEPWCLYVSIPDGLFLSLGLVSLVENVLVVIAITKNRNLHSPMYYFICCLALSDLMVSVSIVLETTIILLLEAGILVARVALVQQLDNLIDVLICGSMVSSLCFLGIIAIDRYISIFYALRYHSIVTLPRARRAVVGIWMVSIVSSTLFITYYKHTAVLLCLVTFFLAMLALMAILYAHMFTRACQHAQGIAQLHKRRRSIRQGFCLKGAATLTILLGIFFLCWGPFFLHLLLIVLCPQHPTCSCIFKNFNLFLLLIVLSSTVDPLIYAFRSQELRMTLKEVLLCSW

EC50, cAMP, 0.1 ng/mL Doxycycline [1]: 5 nM
EC50, cAMP, 10 ng/mL Doxycycline [1]: 0.25 nM
Intrinsic Activity, cAMP, 0.1 ng/mL Doxycycline [1]: 67%
Intrinsic Activity, cAMP, 10 ng/mL Doxycycline [1]: 100%
Ki [2]: 138 nM
Binder: Ac-RES[dPhe(2-F)]RW[Orn]-NH2 (lactam 2-7, also called No. 58) [Ac-Arg-cyclo(Glu-Ser-D-Phe(2-F)-Arg-Trp-Orn)-NH2]

Intrinsic Activity, cAMP, 0.1 ng/mL Doxycycline [1]: 4%
Intrinsic Activity, cAMP, 10 ng/mL Doxycycline [1]: 64%
Ki [2]: 10000 nM
Ki [3]: 6460 nM
B1: Ac-Arg-cyclo(Glu-Asp-D-Phe(4-CN)-Arg-Trp-Orn)-OH (peptide)
peptide: Ac-RED[dPhe(4-CN)]RW[Orn]-OH
modifications: lactam 2-7
SMILES: CC(=O)N[C@@H](CCCNC(=N)N)C(=O)N[C@H]1CCC(=O)NCCC[C@@H](C(=O)O)NC(=O)[C@H](Cc2c[nH]c3ccccc23)NC(=O)[C@H](CCCNC(=N)N)NC(=O)[C@@H](Cc2ccc(C#N)cc2)NC(=O)[C@H](CC(=O)O)NC1=O
notes: also called No. 107

EC50, cAMP, 10 ng/mL Doxycycline [1]: 113 nM
Intrinsic Activity, cAMP, 0.1 ng/mL Doxycycline [1]: 3%
Intrinsic Activity, cAMP, 10 ng/mL Doxycycline [1]: 77%
Ki [2]: 10000 nM
Ki [3]: 647 nM
B2: Ac-Arg-cyclo(Glu-Asp-D-Phe(4-CN)-Arg-Trp-Orn)-NH2 (peptide)
peptide: Ac-RED[dPhe(4-CN)]RW[Orn]-NH2
modifications: lactam 2-7
SMILES: CC(=O)N[C@@H](CCCNC(=N)N)C(=O)N[C@H]1CCC(=O)NCCC[C@@H](C(N)=O)NC(=O)[C@H](Cc2c[nH]c3ccccc23)NC(=O)[C@H](CCCNC(=N)N)NC(=O)[C@@H](Cc2ccc(C#N)cc2)NC(=O)[C@H](CC(=O)O)NC1=O
notes: also called No. 106

EC50, cAMP, 0.1 ng/mL Doxycycline [1]: 1 nM
EC50, cAMP, 10 ng/mL Doxycycline [1]: 0.177 nM
Intrinsic Activity, cAMP, 0.1 ng/mL Doxycycline [1]: 43%
Intrinsic Activity, cAMP, 10 ng/mL Doxycycline [1]: 100%
Ki [2]: 870 nM
Ki [3]: 5 nM
Binder: Ac-REN[dPhe(4-CN)]RW[Orn]-NH2 (lactam 2-7; also: acetate salt, acetate salt form; also called Ex 43) [Ac-Arg-cyclo(Glu-Asn-D-Phe(4-CN)-Arg-Trp-Orn)-NH2]

EC50, cAMP, 0.1 ng/mL Doxycycline [1]: 0.633 nM
EC50, cAMP, 10 ng/mL Doxycycline [1]: 0.09 nM
Intrinsic Activity, cAMP, 0.1 ng/mL Doxycycline [1]: 78%
Intrinsic Activity, cAMP, 10 ng/mL Doxycycline [1]: 97%
Ki [2]: 245 nM
Ki [3]: 7 nM
B3: Ac-Arg-cyclo(Glu-Asn-D-Phe(2-Cl)-Arg-Trp-Orn)-NH2 (peptide)
peptide: Ac-REN[dPhe(2-Cl)]RW[Orn]-NH2
modifications: lactam 2-7
SMILES: CC(=O)N[C@@H](CCCNC(=N)N)C(=O)N[C@H]1CCC(=O)NCCC[C@@H](C(N)=O)NC(=O)[C@H](Cc2c[nH]c3ccccc23)NC(=O)[C@H](CCCNC(=N)N)NC(=O)[C@@H](Cc2ccccc2Cl)NC(=O)[C@H](CC(N)=O)NC1=O
notes: also called No. 84

EC50, cAMP, 10 ng/mL Doxycycline [1]: 0.8 nM
Intrinsic Activity, cAMP, 0.1 ng/mL Doxycycline [1]: 5%
Intrinsic Activity, cAMP, 10 ng/mL Doxycycline [1]: 84%
Ki [2]: 4300 nM
Ki [3]: 3 nM
B4: Ac-Arg-cyclo(Glu-Ala-D-Phe(4-CN)-Arg-Trp-Orn)-NH2 (peptide)
peptide: Ac-REA[dPhe(4-CN)]RW[Orn]-NH2
modifications: lactam 2-7
SMILES: CC(=O)N[C@@H](CCCNC(=N)N)C(=O)N[C@H]1CCC(=O)NCCC[C@@H](C(N)=O)NC(=O)[C@H](Cc2c[nH]c3ccccc23)NC(=O)[C@H](CCCNC(=N)N)NC(=O)[C@@H](Cc2ccc(C#N)cc2)NC(=O)[C@H](C)NC1=O
notes: also called No. 41

EC50, cAMP, 0.1 ng/mL Doxycycline [1]: 0.25 nM
EC50, cAMP, 10 ng/mL Doxycycline [1]: 0.095 nM
Intrinsic Activity, cAMP, 0.1 ng/mL Doxycycline [1]: 76%
Intrinsic Activity, cAMP, 10 ng/mL Doxycycline [1]: 92%
Ki [2]: 150 nM
Ki [3]: 3 nM
Binder: Ac-REN[dPhe(4-F)]RW[Orn]-NH2 (lactam 2-7, also called No. 69) [Ac-Arg-cyclo(Glu-Asn-D-Phe(4-F)-Arg-Trp-Orn)-NH2]

EC50, cAMP, 0.1 ng/mL Doxycycline [1]: 2 nM
EC50, cAMP, 10 ng/mL Doxycycline [1]: 0.095 nM
Intrinsic Activity, cAMP, 0.1 ng/mL Doxycycline [1]: 79%
Intrinsic Activity, cAMP, 10 ng/mL Doxycycline [1]: 95%
Ki [3]: 10 nM
Binder: XDQXRWK (N-terminal Ac; D-Arg 1; D-Phe(2-F) 4; lactam Asp 2-Lys 7; C-terminal NH2, also called No. 82) [Ac-D-Arg-cyclo(Asp-Gln-D-Phe(2-F)-Arg-Trp-Lys)-NH2]

EC50, cAMP, 0.1 ng/mL Doxycycline [1]: 1 nM
EC50, cAMP, 10 ng/mL Doxycycline [1]: 0.265 nM
Intrinsic Activity, cAMP, 0.1 ng/mL Doxycycline [1]: 18%
Intrinsic Activity, cAMP, 10 ng/mL Doxycycline [1]: 96%
Ki [3]: 4 nM
Binder: Ac-R[Orn]N[dPhe(4-CN)]RWE-NH2 (lactam 2-7, also called No. 91) [Ac-Arg-cyclo(Orn-Asn-D-Phe(4-CN)-Arg-Trp-Glu)-NH2]

EC50, cAMP, 0.1 ng/mL Doxycycline [1]: 0.1 nM
EC50, cAMP, 10 ng/mL Doxycycline [1]: 0.04 nM
Intrinsic Activity, cAMP, 0.1 ng/mL Doxycycline [1]: 81%
Intrinsic Activity, cAMP, 10 ng/mL Doxycycline [1]: 89%
Ki [3]: 2 nM
Binder: Ac-REQ[dPhe(4-F)]RW[Orn]-NH2 (lactam 2-7, also called No. 92) [Ac-Arg-cyclo(Glu-Gln-D-Phe(4-F)-Arg-Trp-Orn)-NH2]

EC50, cAMP, 0.1 ng/mL Doxycycline [1]: 0.72 nM
EC50, cAMP, 10 ng/mL Doxycycline [1]: 0.065 nM
Intrinsic Activity, cAMP, 10 ng/mL Doxycycline [1]: 100%
Ki [3]: 7 nM
Binder: Ac-R[Orn]N[dPhe(2-Cl)]RWE-NH2 (lactam 2-7) [Ac-Arg-cyclo(Orn-Asn-D-Phe(2-Cl)-Arg-Trp-Glu)-NH2]

EC50, cAMP, 0.1 ng/mL Doxycycline [1]: 1 nM
EC50, cAMP, 10 ng/mL Doxycycline [1]: 0.18 nM
Intrinsic Activity, cAMP, 0.1 ng/mL Doxycycline [1]: 50%
Intrinsic Activity, cAMP, 10 ng/mL Doxycycline [1]: 112%
Ki [3]: 5 nM
Binder: Ac-R[Orn]N[dPhe(2-CF3)]RWE-NH2 (lactam 2-7) [Ac-Arg-cyclo(Orn-Asn-D-Phe(2-CF3)-Arg-Trp-Glu)-NH2]
